From patent publication US10894036B2, “Use of marizomib for the treatment of central nervous system (CNS) cancers” (Celgene International II Sàrl, priority 2016, dated 2021)

Test: Phase 1/2 MRZ + BEV and MRZ monotherapy in recurrent G4 MG: adverse events, DLT
Conditions: for Ataxia: Treatment Related Grade ≥3 AE, # patients / Confusional State: Treatment Related Grade ≥3 AE, # patients / Delusion: Treatment Related Grade ≥3 AE, # patients / Dyspnea: Treatment Related Grade ≥3 AE, # patients / Embolism: Treatment Related Grade ≥3 AE, # patients / Fall: Treatment Related Grade ≥3 AE, # patients / Fatigue: Treatment Related Grade ≥3 AE, # patients / Hallucination: Treatment Related Grade ≥3 AE, # patients / Headache: Treatment Related Grade ≥3 AE, # patients / Hypertension: Treatment Related Grade ≥3 AE, # patients / Hyponatremia: Treatment Related Grade ≥3 AE, # patients / Insomnia: Treatment Related Grade ≥3 AE, # patients / Intracranial Hemorrhage: Treatment Related Grade ≥3 AE, # patients / Optic Nerve Disorder: Treatment Related Grade ≥3 AE, # patients / Proteinuria: Treatment Related Grade ≥3 AE, # patients: attributed to labelled agent
[1] = MRZ 0.7 mg/m^2 + BEV, Cohort 2, N = 3
[2] = MRZ 0.7 mg/m^2 Cohort 2 (N = 3)
[3] = MRZ 0.8 mg/m^2 + BEV, Cohorts 3 & 4, N = 27
[4] = MRZ 0.8 mg/m^2 + BEV, N = 27, related to the labelled drug
[5] = MRZ 0.8 mg/m^2 Cohorts 3 & 4 (N = 27)

Procedure: The clinical trial was a Phase 1, dose-escalation (3+3 design) followed by dose-expansion at recommended Phase 2 Dose (RP2D).
The drugs were infused on 28-Day Cycles. Tumor response is assessed every other cycle by RANO criteria.
The safety data will be presented in individual listings and summary tables, including frequency tables for adverse events and frequency and shift tables for laboratory variables. The safety population will be all subjects who received at least one dose of either study drug in Phase 1 or MRZ in Phase 2.

bevacizumab [reference compound]
Confusional State, Treatment Related Grade ≥3 AE, patients [1]: 0 | Delusion, Treatment Related Grade ≥3 AE, patients [1]: 0 | Dyspnea, Treatment Related Grade ≥3 AE, patients [1]: 0 | Embolism, Treatment Related Grade ≥3 AE, patients [1]: 0 | Fall, Treatment Related Grade ≥3 AE, patients [1]: 0 | Fatigue, Treatment Related Grade ≥3 AE, patients [1]: 0 | Hallucination, Treatment Related Grade ≥3 AE, patients [1]: 0 | Headache, Treatment Related Grade ≥3 AE, patients [1]: 0 | Hypertension, Treatment Related Grade ≥3 AE, patients [1]: 1 | Hyponatremia, Treatment Related Grade ≥3 AE, patients [1]: 0 | Insomnia, Treatment Related Grade ≥3 AE, patients [1]: 0 | Intracranial Hemorrhage, Treatment Related Grade ≥3 AE, patients [1]: 0 | Optic Nerve Disorder, Treatment Related Grade ≥3 AE, patients [1]: 0 | Proteinuria, Treatment Related Grade ≥3 AE, patients [1]: 1 | Ataxia, Treatment Related Grade ≥3 AE, patients (MRZ 0.7 mg/m^2 + BEV, Cohort 2, N = 3, related to the labelled drug): 0 | Ataxia: Treatment Related Grade ≥3 AE, # patients [2]: 0 | Confusional State: Treatment Related Grade ≥3 AE, # patients [2]: 0 | Delusion: Treatment Related Grade ≥3 AE, # patients [2]: 0 | Dyspnea: Treatment Related Grade ≥3 AE, # patients [2]: 0 | Embolism: Treatment Related Grade ≥3 AE, # patients [2]: 0 | Fall: Treatment Related Grade ≥3 AE, # patients [2]: 0 | Fatigue: Treatment Related Grade ≥3 AE, # patients [2]: 0 | Hallucination: Treatment Related Grade ≥3 AE, # patients [2]: 0 | Headache: Treatment Related Grade ≥3 AE, # patients [2]: 0 | Hypertension: Treatment Related Grade ≥3 AE, # patients [2]: 1 | Hyponatremia: Treatment Related Grade ≥3 AE, # patients [2]: 0 | Insomnia: Treatment Related Grade ≥3 AE, # patients [2]: 0 | Intracranial Hemorrhage: Treatment Related Grade ≥3 AE, # patients [2]: 0 | Optic Nerve Disorder: Treatment Related Grade ≥3 AE, # patients [2]: 0 | Proteinuria: Treatment Related Grade ≥3 AE, # patients [2]: 1 | Fatigue, treatment-related AE, patients (MRZ 0.8 mg/m^2 + BEV Cohorts 3 & 4, N = 27, related to the labelled drug (MRZ + BEV = related to both)): 18 (66.7%) | Confusional State, Treatment Related Grade ≥3 AE, patients [3]: 0 | Delusion, Treatment Related Grade ≥3 AE, patients [3]: 0 | Dyspnea, Treatment Related Grade ≥3 AE, patients [3]: 1 | Embolism, Treatment Related Grade ≥3 AE, patients [3]: 1 | Fall, Treatment Related Grade ≥3 AE, patients [3]: 0 | Fatigue, Treatment Related Grade ≥3 AE, patients [3]: 1 | Hallucination, Treatment Related Grade ≥3 AE, patients [3]: 0 | Headache, Treatment Related Grade ≥3 AE, patients [3]: 1 | Hypertension, Treatment Related Grade ≥3 AE, patients [3]: 5 | Hyponatremia, Treatment Related Grade ≥3 AE, patients [3]: 0 | Insomnia, Treatment Related Grade ≥3 AE, patients [3]: 0 | Intracranial Hemorrhage, Treatment Related Grade ≥3 AE, patients [3]: 1 | Optic Nerve Disorder, Treatment Related Grade ≥3 AE, patients [3]: 1 | Proteinuria, Treatment Related Grade ≥3 AE, patients [3]: 0 | Ataxia, Treatment Related Grade ≥3 AE, patients (MRZ 0.8 mg/m^2 + BEV, Cohorts 3 & 4, N = 27, related to the labelled drug): 0 | Anaemia, treatment-related AE, patients [4]: 0 (0.0%) | Ataxia, treatment-related AE, patients [4]: 0 (0.0%) | Confusional state, treatment-related AE, patients [4]: 1 (3.7%) | Constipation, treatment-related AE, patients [4]: 1 (3.7%) | Diarrhoea, treatment-related AE, patients [4]: 1 (3.7%) | Dizziness, treatment-related AE, patients [4]: 1 (3.7%) | Dysphonia, treatment-related AE, patients [4]: 10 (37.0%) | Epistaxis, treatment-related AE, patients [4]: 7 (25.9%) | Fall, treatment-related AE, patients [4]: 0 (0.0%) | Hallucination, treatment-related AE, patients [4]: 0 (0.0%) | Headache, treatment-related AE, patients [4]: 6 (22.2%) | Infusion site pain, treatment-related AE, patients [4]: 1 (3.7%) | Muscular weakness, treatment-related AE, patients [4]: 1 (3.7%) | Platelet count decreased, treatment-related AE, patients [4]: 3 (11.1%) | Upper-airway cough syndrome, treatment-related AE, patients [4]: 5 (18.5%) | Ataxia: Treatment Related Grade ≥3 AE, # patients [5]: 0 | Confusional State: Treatment Related Grade ≥3 AE, # patients [5]: 0 | Delusion: Treatment Related Grade ≥3 AE, # patients [5]: 0 | Dyspnea: Treatment Related Grade ≥3 AE, # patients [5]: 1 | Embolism: Treatment Related Grade ≥3 AE, # patients [5]: 1 | Fall: Treatment Related Grade ≥3 AE, # patients [5]: 0 | Fatigue: Treatment Related Grade ≥3 AE, # patients [5]: 1 | Hallucination: Treatment Related Grade ≥3 AE, # patients [5]: 0 | Headache: Treatment Related Grade ≥3 AE, # patients [5]: 1 | Hypertension: Treatment Related Grade ≥3 AE, # patients [5]: 5 | Hyponatremia: Treatment Related Grade ≥3 AE, # patients [5]: 0 | Insomnia: Treatment Related Grade ≥3 AE, # patients [5]: 0 | Intracranial Hemorrhage: Treatment Related Grade ≥3 AE, # patients [5]: 1 | Optic Nerve Disorder: Treatment Related Grade ≥3 AE, # patients [5]: 1 | Proteinuria: Treatment Related Grade ≥3 AE, # patients [5]: 0 | Anaemia: # pts, related to BEV (MRZ+BEV, 12 Sep. 2016): 0 | Anxiety: # pts, related to BEV (MRZ+BEV, 12 Sep. 2016): 0 | Aphasia: # pts, related to BEV (MRZ+BEV, 12 Sep. 2016): 0 | Appendicitis Perforated: # pts, related to BEV (MRZ+BEV, 12 Sep. 2016): 0 | Asthenia: # pts, related to BEV (MRZ+BEV, 12 Sep. 2016): 0 | Ataxia: # pts, related to BEV (MRZ+BEV, 12 Sep. 2016): 0 | Confusional State: # pts, related to BEV (MRZ+BEV, 12 Sep. 2016): 0 | Constipation: # pts, related to BEV (MRZ+BEV, 12 Sep. 2016): 0 | Convulsion: # pts, related to BEV (MRZ+BEV, 12 Sep. 2016): 0 | Delusion: # pts, related to BEV (MRZ+BEV, 12 Sep. 2016): 0 | Depressed Level of Consciousness: # pts, related to BEV (MRZ+BEV, 12 Sep. 2016): 0 | Diarrhoea: # pts, related to BEV (MRZ+BEV, 12 Sep. 2016): 0 | Dizziness: # pts, related to BEV (MRZ+BEV, 12 Sep. 2016): 0 | Dysarthria: # pts, related to BEV (MRZ+BEV, 12 Sep. 2016): 0 | Dysphagia: # pts, related to BEV (MRZ+BEV, 12 Sep. 2016): 0 | Dysphonia: # pts, related to BEV (MRZ+BEV, 12 Sep. 2016): 10 | Dyspnoea: # pts, related to BEV (MRZ+BEV, 12 Sep. 2016): 0
